Assay [1] addresses MBPeng-KFLFAK (Escherichia coli | not stated). In words: SEC; central fractions of the monomeric or dimeric peak incubated for one week at 37 °C, then analytical SEC.
For assay [2], the target named is MBPeng-KFL_(PYK2) (Escherichia coli | not stated) (UniProt Q14289). In words: SEC; large-scale Superdex 200 after the amylose column; protein applied at 15 mg/ml; 20 mM HEPES pH 7.5, 150 mM NaCl, 2 mM maltose, 2 mM DTT.
The target is the same in assay [3]. In words: crystal structure; dimeric SEC fractions crystallised by hanging drop at 23 °C, 15 mg/ml, pH 10.5; space group P1.
For assay [4] the target is unchanged. In words: SEC-SAXS; SWING beamline; 20 mM HEPES, 150 mM NaCl, 2 mM DTT, 2 mM maltose; dimer and monomer peaks fitted with models from the crystal structures.

In assay [1], “MBPeng-KFLFAK (from UniProt Q05397 805-832)” gave a percent of the dimeric fraction converted into monomers after one week at 37 °C of 20% and a percent of the monomeric fraction converted into dimers after one week at 37 °C of 20%.
On to “MBPeng-KFL_(PYK2) (from UniProt Q14289 790-839)”, for which the stoichiometry N in assay [2], in assay [3] and in assay [4] was 2 each time.

For the origin of these results see paper PMC6938514.
